The results in this text go back to article PMC3418399.

Assay [1] has as its target Candida albicans ATP-binding cassette transporter CaCdr1p (Candida albicans) (UniProt Q5ANA3).
For assay [2] the target is unchanged. The source holds these as a separate data set.

Sequence of Candida albicans ATP-binding cassette transporter CaCdr1p (Candida albicans) (Q5ANA3 whole entry): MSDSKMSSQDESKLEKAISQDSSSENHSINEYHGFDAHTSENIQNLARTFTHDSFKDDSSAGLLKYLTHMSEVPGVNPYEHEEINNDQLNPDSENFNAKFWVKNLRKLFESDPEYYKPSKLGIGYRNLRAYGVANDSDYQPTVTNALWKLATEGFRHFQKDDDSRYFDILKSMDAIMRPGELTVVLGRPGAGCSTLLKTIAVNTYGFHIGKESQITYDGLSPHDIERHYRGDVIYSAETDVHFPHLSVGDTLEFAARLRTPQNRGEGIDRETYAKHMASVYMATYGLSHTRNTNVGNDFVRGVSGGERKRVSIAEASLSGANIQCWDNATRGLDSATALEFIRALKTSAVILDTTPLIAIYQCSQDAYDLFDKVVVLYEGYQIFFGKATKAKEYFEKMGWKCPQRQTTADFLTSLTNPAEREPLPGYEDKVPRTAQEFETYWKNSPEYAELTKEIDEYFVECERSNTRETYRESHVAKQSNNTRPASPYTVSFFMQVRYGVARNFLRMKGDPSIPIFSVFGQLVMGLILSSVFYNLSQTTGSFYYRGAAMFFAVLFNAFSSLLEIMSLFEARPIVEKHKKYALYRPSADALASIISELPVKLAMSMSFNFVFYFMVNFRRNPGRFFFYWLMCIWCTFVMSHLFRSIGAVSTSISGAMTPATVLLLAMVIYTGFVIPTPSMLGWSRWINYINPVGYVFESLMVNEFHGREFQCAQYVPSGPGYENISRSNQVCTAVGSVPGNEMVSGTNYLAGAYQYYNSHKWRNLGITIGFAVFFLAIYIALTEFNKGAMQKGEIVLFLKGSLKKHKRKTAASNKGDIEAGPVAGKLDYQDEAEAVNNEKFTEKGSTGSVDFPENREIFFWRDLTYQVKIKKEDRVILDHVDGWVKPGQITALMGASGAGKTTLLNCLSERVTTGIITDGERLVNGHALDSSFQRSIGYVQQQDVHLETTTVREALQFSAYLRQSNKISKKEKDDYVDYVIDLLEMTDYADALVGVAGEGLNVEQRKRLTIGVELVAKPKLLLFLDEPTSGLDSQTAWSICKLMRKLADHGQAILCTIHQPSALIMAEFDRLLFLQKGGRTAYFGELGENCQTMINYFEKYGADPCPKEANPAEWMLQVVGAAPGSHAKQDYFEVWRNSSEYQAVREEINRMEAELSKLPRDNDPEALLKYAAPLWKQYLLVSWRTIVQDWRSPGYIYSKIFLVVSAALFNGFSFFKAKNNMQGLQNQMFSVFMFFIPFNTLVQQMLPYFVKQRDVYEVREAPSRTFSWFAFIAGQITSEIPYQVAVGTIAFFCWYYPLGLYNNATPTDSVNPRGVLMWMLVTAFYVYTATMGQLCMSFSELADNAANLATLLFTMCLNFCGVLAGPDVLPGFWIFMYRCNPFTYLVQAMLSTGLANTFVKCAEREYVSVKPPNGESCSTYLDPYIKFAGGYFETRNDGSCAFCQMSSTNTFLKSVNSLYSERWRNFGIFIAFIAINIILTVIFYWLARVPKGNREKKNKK

For the substance “RC1, naked D-octapeptide D-NH2-FFKWQRRR-CONH2”, the IC50 of inhibition of the ATPase activity of CaCdr1p in assay [1] is over 200 µM.
For the substance “RC21v3, D-NH2-FFKWQR(Mtr)RR-CONH2 (peptide)”, the IC50 of inhibition of the CaCdr1p ATPase activity, plasma membrane preparations in assay [2] was 1.1 µM.
